Data from paper PMC7026020.

How the values were obtained:
[1] = biological target: membrane FcγRIIIA (human) (UniProt P08637); assay: flow cytometry on cells
[2] = biological target: membrane FcγRIIIA (human) (UniProt P08637); assay: flow cytometry on cells; competition: CD16-transduced NK92 cells (2 x 10^4) incubated with FITC-conjugated anti-CD16 3G8 (1:100) and increasing concentrations of TmAbs or sc-TmAbs, 30 min at 4°C; percent inhibition of 3G8 binding

UniProt P08637, sequence (P08637 17-208): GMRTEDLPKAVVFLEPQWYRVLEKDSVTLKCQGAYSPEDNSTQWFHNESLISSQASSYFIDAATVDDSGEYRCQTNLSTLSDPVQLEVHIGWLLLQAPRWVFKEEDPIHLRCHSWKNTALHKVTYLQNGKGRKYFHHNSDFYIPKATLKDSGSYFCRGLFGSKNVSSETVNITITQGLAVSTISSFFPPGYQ

rituximab (antibody) gave a maximal percent inhibition of 3G8 binding (at 3 mg/mL) [1] of 80%.
ipilimumab (antibody) showed a maximal percent inhibition of 3G8 binding (at 3 mg/mL) [1] of 80%.
Substance trastuzumab (antibody) has a maximal percent inhibition of 3G8 binding (at 3 mg/mL) [1] of 80%.
cetuximab (antibody) gave a maximal percent inhibition of 3G8 binding (at 3 mg/mL) [1] of 80%.
Work on infliximab (antibody) yielded a maximal percent inhibition of 3G8 binding (at 3 mg/mL) [2] of 80%.
